# Laboratory results reported in patent publication US20090257987A1, “Method of generating dopamine-secreting cells” (Ramot At Tel Aviv University Ltd., priority 2008, published 2009).
# B1: brain-derived neurotrophic factor (protein, UniProt P23560 19-247, looked up)
# Neurotrophic factor BDNF …: APMKEANIRGQGGLAYPGVRTHGTLESVNGPKAGSRGLTSLADTFEHVIEELLDEDQKVRPNEENNKDADLYTSRVMLSSQVPLEPPLLFLLEEYKNYLDAANMSMRVRRHSDPARRGELSVCDSISEWVTAADKKTAVDMSGGTVTVLEKVPVSKGQLKQYFYETKCNPMGYTKEGCRGIDKRHWNSQCRTTQSYVRALTMDSKKRIGWRFIRIDTSCVCTLTIKRGR
# notes: brain-derived neurotrophic factor (50 ng/ml) added to the Basic induction medium
# Experiments:
# human MSCs [1] = assay: Immunocytochemistry for neuronal markers Tuj1 and NeuN; type: cell-based
# Protocol: Induction of differentiation: The differentiation protocol was composed of 2 steps. In step 1, cells were transferred to serum-free medium (DMEM) supplemented with 2 mM glutamine, 100 μg/ml streptomycin, 100 units/ml penicillin, 12.5 units/ml nystatin (Biological Industries), N2 supplement (Invitrogen, New Haven, Conn.) and 20 ng/ml fibroblast growth factor 2 and epidermal growth factor (both from R&D Systems, Minneapolis, Minn.) for 48-72 hours. In step 2, the medium was changed to Basic induction medium containing Neurobasal, B27 (both from Invitrogen), in addition to 1 mM dibutyryl cyclic AMP (dbcAMP), 3-isobutyl-1-methyl-xanthine (IBMX), and 200 μM ascorbic acid (all from Sigma, St Louis, Mo.). […] Cells were photographed with a fluorescence Olympus IX70-[…] microscope with a fluorescent light source (excitation wavelength, 330-385 nm; barrier filter, 420 nm) and a U-MNU filter cube (Olympus, Center Valley, Pa.).
# human MSCs [2] = assay: Real-time quantitative PCR of Nurr1 and GAD67; type: cell-based; details: real-time PCR versus GAPDH
# Protocol: Induction of differentiation: The differentiation protocol was composed of 2 steps. In step 1, cells were transferred to serum-free medium (DMEM) supplemented with 2 mM glutamine, 100 μg/ml streptomycin, 100 units/ml penicillin, 12.5 units/ml nystatin (Biological Industries), N2 supplement (Invitrogen, New Haven, Conn.) and 20 ng/ml fibroblast growth factor 2 and epidermal growth factor (both from R&D Systems, Minneapolis, Minn.) for 48-72 hours. […]
# RNA isolation and cDNA synthesis: Total RNA was isolated by a commercial TriReagent (Sigma). The amount and quality of RNA was determined with the ND-1000 spectrophotometer (NanoDrop, Wilmington, Del.). […]
# Real-time quantitative reverse transcription polymerase chain reaction (PCR): Real-time quantitative PCR of the desired genes was performed in an ABI Prism 7700 sequence detection system (Applied Biosystems, Foster City, Calif.) using Syber Green PCR Master Mix (Applied Biosystems) and the following primers: glyceraldehyde-3-phosphate dehydrogenase (GAPDH) sense CGACAGTCAGCCGCATCTT (SEQ ID NO: 1), GAPDH antisense […] […] For each gene, the specificity of the PCR product was assessed by verifying a single peak in the melting curve analysis. […] Quantitative calculations of the gene of interest versus GAPDH were done according to the ΔΔCT method, as instructed in the user bulletin of the ABI Prism 7700 sequence detection system (updated 10/2001).
molecule,measurement,setting,value
B1,NeuN staining,human MSCs [1],stained positive
same,Tuj 1 expression,human MSCs [1]; versus untreated MSCs,higher levels
same,GAD67 expression,human MSCs [2],down regulation
same,Nurr1 expression,human MSCs [2]; compared to untreated MSCs,significant upregulation
